# Measured values reported in article PMC9719028 (Life Science Alliance, 2022).
# T1: DIRC2-AA (Homo sapiens, UniProt Q96SL1, L14A/L15A)
# T1 construct: gene SLC49A4; untagged DIRC2-AA in pCI-neo, N-terminal dileucine motif (E10RQPL14L15) replaced by dialanine, redirected to plasma membrane of transiently transfected COS-7 cells; FLAG-tagged form mostly present as cleaved product
# T1 sequence (Q96SL1 1-478 L14A/L15A): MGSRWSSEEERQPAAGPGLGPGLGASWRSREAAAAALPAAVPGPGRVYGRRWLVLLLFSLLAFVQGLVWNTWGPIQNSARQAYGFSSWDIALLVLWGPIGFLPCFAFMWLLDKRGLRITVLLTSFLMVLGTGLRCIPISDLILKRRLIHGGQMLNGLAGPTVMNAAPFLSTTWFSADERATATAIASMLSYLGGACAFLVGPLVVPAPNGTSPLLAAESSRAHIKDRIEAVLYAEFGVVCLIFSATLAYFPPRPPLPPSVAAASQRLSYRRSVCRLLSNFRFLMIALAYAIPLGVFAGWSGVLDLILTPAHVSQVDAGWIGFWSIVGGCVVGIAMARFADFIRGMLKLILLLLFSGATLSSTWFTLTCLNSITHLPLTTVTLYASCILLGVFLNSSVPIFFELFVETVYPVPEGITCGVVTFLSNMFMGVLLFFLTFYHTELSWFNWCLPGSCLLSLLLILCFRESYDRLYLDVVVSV
# What was measured:
# [1] = molecular target: T1, DIRC2-AA; experiment: inhibition of specific [3H]pyridoxine uptake in transfected COS-7 cells; format: cell-based; conditions: 10 nM [3H]pyridoxine, 1 mM test compound, pH 5.0, 37 °C, 1 min
# [2] = substrate: Cc1ncc(CO)c(CO)c1O; experiment: cells, lysate or membranes; conditions: pH 5.0, 37 °C, 1 min, labelled compound
molecule,measurement,setting,value
Cc1ncc(CO)c(C)c1O [4-deoxypyridoxine],% inhibition at 1 mM,[1],only 4-deoxypyridoxine other than pyridoxine significantly inhibited the DIRC2-AA–specific uptake
DIRC2-AA (Homo sapiens; L14A/L15A) (protein) MGSRWSSEEERQPAAGPGLGPGLGASWRSREAAAAALPAAVPGPGRVYGRRWLVLLLFSLLAFVQGLVWNTWGPIQNSARQAYGFSSWDIALLVLWGPIGFLPCFAFMWLLDKRGLRITVLLTSFLMVLGTGLRCIPISDLILKRRLIHGGQMLNGLAGPTVMNAAPFLSTTWFSADERATATAIASMLSYLGGACAFLVGPLVVPAPNGTSPLLAAESSRAHIKDRIEAVLYAEFGVVCLIFSATLAYFPPRPPLPPSVAAASQRLSYRRSVCRLLSNFRFLMIALAYAIPLGVFAGWSGVLDLILTPAHVSQVDAGWIGFWSIVGGCVVGIAMARFADFIRGMLKLILLLLFSGATLSSTWFTLTCLNSITHLPLTTVTLYASCILLGVFLNSSVPIFFELFVETVYPVPEGITCGVVTFLSNMFMGVLLFFLTFYHTELSWFNWCLPGSCLLSLLLILCFRESYDRLYLDVVVSV,Km,"[2]; Hanks' solution with MES (NaCl present), H+-coupled uptake",522 ± 63 µM
EGFP-DIRC2-AA (Homo sapiens; L14A/L15A) (protein) MGSRWSSEEERQPAAGPGLGPGLGASWRSREAAAAALPAAVPGPGRVYGRRWLVLLLFSLLAFVQGLVWNTWGPIQNSARQAYGFSSWDIALLVLWGPIGFLPCFAFMWLLDKRGLRITVLLTSFLMVLGTGLRCIPISDLILKRRLIHGGQMLNGLAGPTVMNAAPFLSTTWFSADERATATAIASMLSYLGGACAFLVGPLVVPAPNGTSPLLAAESSRAHIKDRIEAVLYAEFGVVCLIFSATLAYFPPRPPLPPSVAAASQRLSYRRSVCRLLSNFRFLMIALAYAIPLGVFAGWSGVLDLILTPAHVSQVDAGWIGFWSIVGGCVVGIAMARFADFIRGMLKLILLLLFSGATLSSTWFTLTCLNSITHLPLTTVTLYASCILLGVFLNSSVPIFFELFVETVYPVPEGITCGVVTFLSNMFMGVLLFFLTFYHTELSWFNWCLPGSCLLSLLLILCFRESYDRLYLDVVVSV,Km,"[2]; Hanks' solution with MES (NaCl present), H+-coupled uptake, caption names it FLAG-DIRC2-AA once, text says EGFP-DIRC2-AA",476 ± 19 µM
EGFP-THTR2 (Homo sapiens) (protein) MDCYRTSLSSSWIYPTVILCLFGFFSMMRPSEPFLIPYLSGPDKNLTSAEITNEIFPVWTYSYLVLLLPVFVLTDYVRYKPVIILQGISFIITWLLLLFGQGVKTMQVVEFFYGMVTAAEVAYYAYIYSVVSPEHYQRVSGYCRSVTLAAYTAGSVLAQLLVSLANMSYFYLNVISLASVSVAFLFSLFLPMPKKSMFFHAKPSREIKKSSSVNPVLEETHEGEAPGCEEQKPTSEILSTSGKLNKGQLNSLKPSNVTVDVFVQWFQDLKECYSSKRLFYWSLWWAFATAGFNQVLNYVQILWDYKAPSQDSSIYNGAVEAIATFGGAVAAFAVGYVKVNWDLLGELALVVFSVVNAGSLFLMHYTANIWACYAGYLIFKSSYMLLITIAVFQIAVNLNVERYALVFGINTFIALVIQTIMTVIVVDQRGLNLPVSIQFLVYGSYFAVIAGIFLMRSMYITYSTKSQKDVQSPAPSENPDVSHPEEESNIIMSTKL,Km,[2]; Hanks' solution with MES,20 ± 1 µM
